Consider one substance from publication PMC5318860.

This experiment has as its target SAVSBPM18-L-ABD(KC) fusion (not stated | Lumbricus terrestris). Kind of experiment: affinity chromatography; 1-ml columns with about 1 mg of SAVSBPM18-L-ABD(KC) on Sepharose 6B-CL or 1,025 μg of SAVSBPM18 on Affi-Gel 15; 1 mg of biotinylated BSA loaded, above the binding capacity; elution with 10 mM biotin; fractions on SDS-PAGE.

For the substance “chemically biotinylated bovine serum albumin (BSA) (from UniProt P02769 25-607) (natural protein)”, the amount bound per ml of matrix at saturation (μg per ml of matrix) came out at 730.
